Molecular target: human transient receptor potential cation channel, subfamily A, member 1 (hTRPA1) (human) (UniProt O75762)
Test: cell-based or functional assay

UniProt O75762, sequence (O75762 whole entry): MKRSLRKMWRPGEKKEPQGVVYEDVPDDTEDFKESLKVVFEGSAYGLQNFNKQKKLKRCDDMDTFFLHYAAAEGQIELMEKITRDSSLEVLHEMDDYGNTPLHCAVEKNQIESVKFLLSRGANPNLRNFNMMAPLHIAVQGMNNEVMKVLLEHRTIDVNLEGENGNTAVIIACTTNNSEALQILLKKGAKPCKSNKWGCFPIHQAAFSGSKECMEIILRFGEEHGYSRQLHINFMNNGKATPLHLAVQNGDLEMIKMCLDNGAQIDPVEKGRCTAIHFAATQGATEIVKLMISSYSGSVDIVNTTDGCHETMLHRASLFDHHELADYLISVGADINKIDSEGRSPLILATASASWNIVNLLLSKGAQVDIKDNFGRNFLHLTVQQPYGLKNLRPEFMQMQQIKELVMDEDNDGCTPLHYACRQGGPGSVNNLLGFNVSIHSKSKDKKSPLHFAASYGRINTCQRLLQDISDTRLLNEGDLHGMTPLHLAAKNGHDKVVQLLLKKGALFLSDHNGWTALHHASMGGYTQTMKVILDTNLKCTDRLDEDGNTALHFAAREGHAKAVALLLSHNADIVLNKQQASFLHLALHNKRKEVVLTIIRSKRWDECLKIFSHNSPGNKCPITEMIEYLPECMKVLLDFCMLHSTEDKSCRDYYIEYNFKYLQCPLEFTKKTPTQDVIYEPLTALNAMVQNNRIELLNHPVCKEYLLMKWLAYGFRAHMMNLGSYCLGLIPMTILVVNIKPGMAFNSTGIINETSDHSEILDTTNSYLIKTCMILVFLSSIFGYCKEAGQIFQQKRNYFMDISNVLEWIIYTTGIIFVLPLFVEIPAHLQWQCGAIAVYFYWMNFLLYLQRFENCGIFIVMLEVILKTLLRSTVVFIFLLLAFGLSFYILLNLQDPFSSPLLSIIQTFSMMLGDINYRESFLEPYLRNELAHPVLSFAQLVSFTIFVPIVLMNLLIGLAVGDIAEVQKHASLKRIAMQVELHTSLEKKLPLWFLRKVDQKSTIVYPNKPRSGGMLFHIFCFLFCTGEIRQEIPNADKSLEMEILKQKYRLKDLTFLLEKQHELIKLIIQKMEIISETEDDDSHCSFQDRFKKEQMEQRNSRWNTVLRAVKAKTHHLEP

calcium flux in HEK cells transfected to express human TRPA1 (EC50): 200 nM
Substance: rabbit metallothionein 2 A isoform containing 7 zinc atoms (rabbit Zn7-MT2A) (Bestenbalt LLC, Estonia) (from UniProt P18055 1-62) (ligand)
